# Results published in the supplement of paper PMC7125110.
# ± gives the standard error. Fewer inactive variants are shown than the library holds.
# B1: glmS ribozyme (parent)
# chain: AUAAAAGCGCCAGAACUACAGAAAUGUAGUUGACGAGGAGGAGGUUUAUCGAAUUUUCGGCGGAUGCCUCCAAA
# How the values were obtained:
# Settings in all cases: with glucosamine-6-phosphate
# glucosamine-6-phosphate [1] = variants of: B1; assay: self-cleavage kobs at 640 uM GlcN6P; higher = faster cleavage; RNA array
# Procedure, shortened: (§1)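 Barcoded ribozyme variants, transcribed in situ by E. coli RNA polymerase on sequenced MiSeq chips, were followed via a hybridised Cy3 probe at 37 °C. Glucosamine-6-phosphate ranged from 40 μM to 10 mM in HEPES/KCl/Mg(OAc)2 buffer. kobs came from decay fits to per-tile medians, and kcat and KM from weighted Michaelis–Menten fits.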
# glucosamine-6-phosphate [2] = variants of: B1; assay: self-cleavage kobs at 2500 uM GlcN6P; higher = faster cleavage; RNA array
# Procedure, shortened: as §1
# glucosamine-6-phosphate [3] = variants of: B1; assay: self-cleavage kobs at 10000 uM GlcN6P; higher = faster cleavage; RNA array
# Procedure, shortened: as §1
Variant,self-cleavage kobs at 640 uM GlcN6P (glucosamine-6-phosphate [1]),self-cleavage kobs at 2500 uM GlcN6P (glucosamine-6-phosphate [2]),self-cleavage kobs at 10000 uM GlcN6P (glucosamine-6-phosphate [3])
U31G U55A U69G,7.53e-05 ± 1.6e-05 s⁻¹,7.74e-05 ± 2.2e-05 s⁻¹,
A14U A15G C16A A52U A53U,< 1e-05 s⁻¹,,
G7C U45G A53U A64G,< 1e-05 s⁻¹,,
A12G G29C A39G A52C C67A,< 1e-05 s⁻¹,,
A42G C58A A64U,< 1e-05 s⁻¹,< 1e-05 s⁻¹,
A39U G43U C50U,< 1e-05 s⁻¹,< 1e-05 s⁻¹,
A6U G41A C58A,< 1e-05 s⁻¹,,
A36C A39C A52U,< 1e-05 s⁻¹,,
C10U A36U C70A,0.00107 ± 0.00039 s⁻¹,,
A12C G41A A42U G51C C68G C70U,< 1e-05 s⁻¹,,
C34A G44U C50A,< 1e-05 s⁻¹,,
G43C U49A U57G C68G,< 1e-05 s⁻¹,,
G13C G44C G60A,< 1e-05 s⁻¹,,
G40U G44U G62U,< 1e-05 s⁻¹,< 1e-05 s⁻¹,
C8U C34U A42U U65A C67G,0.000104 ± 4.1e-05 s⁻¹,5.58e-05 ± 2.1e-05 s⁻¹,
U30G G37A A53G,0.000102 ± 2.5e-05 s⁻¹,,
C11U U57G G63A,< 1e-05 s⁻¹,< 1e-05 s⁻¹,
U47C G59U,< 1e-05 s⁻¹,,
C8A A48G A53U,< 1e-05 s⁻¹,< 1e-05 s⁻¹,
A12C G35A A36C U56G G60C,< 1e-05 s⁻¹,< 1e-05 s⁻¹,
A52C A53C U55C C67G,< 1e-05 s⁻¹,< 1e-05 s⁻¹,
C10G C68G C71U,3.95e-05 ± 1.7e-05 s⁻¹,,

Variant,self-cleavage kobs at 640 uM GlcN6P (glucosamine-6-phosphate [1]),self-cleavage kobs at 2500 uM GlcN6P (glucosamine-6-phosphate [2]),self-cleavage kobs at 10000 uM GlcN6P (glucosamine-6-phosphate [3])
A6C G35C U54A,< 1e-05 s⁻¹,< 1e-05 s⁻¹,< 1e-05 s⁻¹
A12G A42G C61U G63U,< 1e-05 s⁻¹,,
G13A A39U U55C,4.33e-05 ± 1.4e-05 s⁻¹,0.000128 ± 2.9e-05 s⁻¹,
U57A C71U,5.18e-05 ± 2.1e-05 s⁻¹,0.000132 ± 3.1e-05 s⁻¹,0.000407 ± 0.00015 s⁻¹
C34G U46A U49A,< 1e-05 s⁻¹,,
G35C G43U A52U C61U,< 1e-05 s⁻¹,< 1e-05 s⁻¹,
C19A A33U C50G U56C C58U G63U C68G,0.000599 ± 0.00016 s⁻¹,,
G32U C50U C61U,< 1e-05 s⁻¹,< 1e-05 s⁻¹,
G7U U46A C68U,< 1e-05 s⁻¹,< 1e-05 s⁻¹,
A6U G35C A64C,< 1e-05 s⁻¹,< 1e-05 s⁻¹,
G13U G43C C67U,< 1e-05 s⁻¹,< 1e-05 s⁻¹,< 1e-05 s⁻¹
U45G G60U G62C C70U,< 1e-05 s⁻¹,< 1e-05 s⁻¹,
C16U A39G G66A,0.00662 ± 0.0015 s⁻¹,,
A15U U30A C68G,9.94e-05 ± 2.9e-05 s⁻¹,,
G9U G32C A33G A39G A48U C61U G63U A64U,< 1e-05 s⁻¹,< 1e-05 s⁻¹,
A53U U54A U56A C70G,0.000134 ± 3e-05 s⁻¹,8.57e-05 ± 1.9e-05 s⁻¹,
A12U C16A C50A A64G,< 1e-05 s⁻¹,,
A36C A42U A52G C70U,< 1e-05 s⁻¹,,
A14G A15U A48U U69C,6.32e-05 ± 2.6e-05 s⁻¹,,7.49e-05 ± 2e-05 s⁻¹
A12G A48C A52U,< 1e-05 s⁻¹,< 1e-05 s⁻¹,
C11G A12U G41U A53G C67G,< 1e-05 s⁻¹,,
A64U C67U C71U,< 1e-05 s⁻¹,,

Variant,self-cleavage kobs at 640 uM GlcN6P (glucosamine-6-phosphate [1]),self-cleavage kobs at 2500 uM GlcN6P (glucosamine-6-phosphate [2]),self-cleavage kobs at 10000 uM GlcN6P (glucosamine-6-phosphate [3])
A42C G43U U56A G66U,< 1e-05 s⁻¹,,
G44A U46A G62A,< 1e-05 s⁻¹,,
U31A U55G C67U,0.000859 ± 0.00023 s⁻¹,0.000519 ± 0.00025 s⁻¹,
A12G G37U A48G,< 1e-05 s⁻¹,< 1e-05 s⁻¹,
A14G U54C C61G G62C,< 1e-05 s⁻¹,,
A36C U49G G63A,< 1e-05 s⁻¹,< 1e-05 s⁻¹,
A39U A48U U55C G59U,< 1e-05 s⁻¹,< 1e-05 s⁻¹,
C16A G41U,< 1e-05 s⁻¹,,
A42C A48U C68G,< 1e-05 s⁻¹,,
A39G C58G G60C,< 1e-05 s⁻¹,< 1e-05 s⁻¹,< 1e-05 s⁻¹
G7U U55G U57C,< 1e-05 s⁻¹,< 1e-05 s⁻¹,< 1e-05 s⁻¹
G7C G40U,< 1e-05 s⁻¹,< 1e-05 s⁻¹,< 1e-05 s⁻¹
G7C A15C A39U A42C U57A,< 1e-05 s⁻¹,< 1e-05 s⁻¹,
G29C A33C C34G G38C A52G,< 1e-05 s⁻¹,,
A15G U56A C61G,< 1e-05 s⁻¹,,
C8U C10U C11U G51C,< 1e-05 s⁻¹,,
G41A U55C,1.88e-05 ± 8.5e-06 s⁻¹,0.000105 ± 1.9e-05 s⁻¹,
C8G C58U,< 1e-05 s⁻¹,< 1e-05 s⁻¹,< 1e-05 s⁻¹
U30G G37C G41A A48U A53U C68G C70U,< 1e-05 s⁻¹,,
C34A C61U U65C U69G,< 1e-05 s⁻¹,,
U45C U65C G66U C68G,< 1e-05 s⁻¹,< 1e-05 s⁻¹,
C8G C67U C70G,< 1e-05 s⁻¹,,
